Experiment: yeast display, Sf9 membrane polyspecificity reagent, FACS + sequencing; frameworks hold sequencing errors
Summary of the method: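 Synthetic nanobody libraries on Saccharomyces cerevisiae BJ5465 were galactose-induced for 36–48 hours, stained 1 hour at 4 °C with 10% biotinylated, detergent-solubilized Sf9 membrane reagent and enriched on streptavidin microbeads. FACS then separated cells into low and high (top ~1%) gates by anti-HA (expression) and streptavidin (reagent binding) fluorescence. Genes were colony-PCR amplified, MiSeq 2 × 250 sequenced and CDR-length filtered. A clone's polyreactivity label is that of its gate of origin.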

Row | Sequence | polyreactivity (PSR sort gate)
1 | QVQLVESGGGLVQAGGSLRLSCADSGFTFSQYAAIGWYRQAPGKERELVAAINISGSTNYADSVKGRFTISRDNAKNTVYLQMNSLKPEDTAVYYCAAQQSWKIYDYWGLGTQVTVSS | low polyreactivity
2 | QVQLVESGGGLVQAGGSLRLSCAASGLIFWAYAMGWYRQAPGKERELVAAISWSGARTYYADSVKGRFTISRDNAKNTVYLQMNILKPEDTAVYYCAAGLSSSSSGYEGDYWGLGTQVTVSS | high polyreactivity
3 | QVQLVESGGGLVQAGGSLRLSCAASGRIFTHNDMGWYRQAPGKERELVAAITSGGRTTYADSVKGRFTISRDNAKNTVYLQMNSLKPEDTAVYYCNADTCLGSLDFDKRDYWGQGTQVTVSS | low polyreactivity
4 | QVQLVESGGGLVQAGGSLRLSCAASGITFKYYTMAWYRQAPGKERELVAAISRSGGSTYYADSVKGRFTISRDNAKNTVYLQMMSLKPEDTAVYYCAAERGAYRGVTFTYGYWGQGTQVTLSS | high polyreactivity
5 | QVQLVESGGVLVQAGGSLRLSCAASGSIFYVNTMGWYRQAPGKDRELVADISSGDSTYYADSVKGRFTISRDNAKNTVYLQMNSLKPEDTAVFYCNADVYSWVSGKEGDYWGQGTQVTVSS | low polyreactivity
6 | QVQLVESGGGLVQAGGSLRLSCAASGSIFLFYAMGWYRQAPGKERELVAAISYSGGRTYYADSVKGRFTISRDNAKNTVYLQMNSLNPEDTAVYYCAAVGYSSYPYRRFDYWGQGTQVTVSS | high polyreactivity
7 | QVQLVESGGGLVQAGGSIRLSCAASGFTFRRNAMGWSRQAPGKERELVAAITSSGASTYYADSVKGRFTISRDNAKNTVYLQMNSLKPEDTAVYYCAARQTYYKYGYWGQGTQVTVSS | high polyreactivity
8 | QVQLVESGGGLVQAGGSLRLSCAASGRTFIPYAMGWYRQAPGKERELVAAITSSGGRTYYADSVKGRFTISRDNAKNTVYLQMNSLKPEDTAVYYCNKYARGYDMDYWGQGTQVTVSS | high polyreactivity
9 | QVQLVESGGGLVQAGGSLRLSCAASGSTLVFSAMGWYRQAPGKERELVAAITRSGGSTYYADSVKGRFTITRDNAKNTVYLQMNSLKPEDTAVYYCAADERYIYERDSWGQGTQVSVSS | low polyreactivity
10 | QVQLVESGGGLVKAGGSLRLSCAASGRIFYGYAMGWYRQAPGKERELVAAITRSGTSTYYADSVKGRFTISRDNAKNTVYLQMHSLKPEDTAVYYCAAVERSLRSPYGDYGYWGHGTQVTVSS | high polyreactivity
11 | QVQLEESGGGLVQAGGSLRLSCAASGSTFTLNAMGWYRQAPGKERELVADISWSSGRTYYADSVKGRFTISRDNAKNTVYLQMNSLKPEDTAVYYCATDDFWNVKFYAYYPEFDYWGQGTQVTVSS | low polyreactivity
12 | QVQLVESGGGLVQAGGSLRLSCAASGSIFISYNMGWYGQAPGKERELVAANNYNGGRTNYADSVKGRFTISRDKAKNTVYLQINSLKPEDTAVYYCNAAYSYSIYDYWGQGTQVTVSS | low polyreactivity
13 | QVQLVESGGGLVQAGGSLRLSCAASGRIFFSYMGWYRQAPGKERELVAAISSGGSTYYADSVKGRFTISRDNAKNTVYLQMNSLKPEDTAVYYCAARYRLDGTHMTGYAYYSWGQGTQVTVSS | high polyreactivity
14 | QVQLVESGGGLVQAGGSLRLSCAASGFTFSENTMGWYRQAPGKERELVADIDSGGSTYYADSVKGRFTISRDNAKNTVYLQMKRLKPEDTAVYYCAKDYHVVGGPTFLFEYDYWGQGSQVTVSS | low polyreactivity
15 | QVHPVESGGGLVQAGGSIRLSCAASGRIFRRYTMGWYRQAPGHERELVAAITRGGGSTSYADSVKGRFTISRDNAKNTVYLQMNSLKPEDTAVYYCAAQARTSTIRGYDYWGQGTQVTVSS | high polyreactivity
16 | QVQLVESGGGLVQAGGSLRLSCAASGGTFPYYAMGWYRQAPGKERELVADISGTDGSTYYADSVKGRFTISRDNAKNTVYLQMNSLKPEDTAVYYCAAEEVSWNGTGDYWGQGTQVTVSS | high polyreactivity
17 | QVQLVESGGVLVQAGGSLRLSCAASGRTLGTYAMGWYRQAPGKERELVAAITHSGGTTYYADSVKGRFTISRDNAKNTVYLQMNSLKPEDTAVYYCAADARFRTVSPMDYWGQGTQVTVSS | low polyreactivity
18 | QVQLVESGGGLVQAGGSLRLSCAASGFTFSSYDMGWYRQAPGKERELVAAISRSGGSTYYADSVKGRFTISRDNAKNTVYLQMNCLKPEDTAVYYARAKYSRVTLYQGYGYWGQGTQVTVSS | high polyreactivity
19 | QVQLLESGGGLVQAGGSLRLSCAASGSTFDRNTMGWYRQAPGTVRELVAAITWSSGSTYYADSVKGRFTISRDNAKNTVYLQMNSLKPEDTAVYYCAADRIRYRSRHKYGYWVQGTQVTVSS | low polyreactivity
20 | QVQLVESGGGLVQAGGSLRLSCAASGRIFSGYALGWYRQAPGKERELVAAISQRGGSTTYADSVKGRFTISRDNAKNTVYLQMNSLKPEDTAVYYCAKRYTYPSGYDYWGQGTEVTVSS | low polyreactivity
21 | QVQLVESGGGLVQAGGSLRLSCASSGRIFSQNAMGWYRQAPGKERELVAAISGGSTNYADSVKGRFTISRDNAKNPVYLQMNSLKPEDTAVYYCAADAPFKMDYWGQGTQVTVSS | low polyreactivity
22 | QVQLVESGGGLVQAGGSLRLSCAASGSTFRSYVMGWYRQAPGKERELVARITFNGGGTSYADSVKGRFTISRDTAKNTVYLQMNSLKPEDTAVYYCAARGYGWPKLFNYWGQGTQVTVSS | high polyreactivity

Row | Sequence | polyreactivity (PSR sort gate)
23 | QVQLVESGGCLVQAGGSLRLSCAASGFTFWRNVMGWYRQAPGKERELVAVISRGGSTNYADSVKGRFTISRDNAMNTVYLQMNSLKPEDTAVYYCAKYARGPSKVDYWGQGTQVTVSS | high polyreactivity
24 | QVQLVQSGGGLVQAGGSLRVSSAASGNIFAYYAKGWYSQAPGKERELVAAITDSGGNTFYADSVKGRFTISRDQAKNTVYLQMNSLKPEDTAVYYCAADTFYSYYDMDYWGQGTQVTVSS | low polyreactivity
25 | QVQLVESGGGLVQAGGSLRLSCAASGSIFDVNAMGWYRQAPGKERELVAAISDSGGSTYYADSVKGRYTISRDNAKNTVYLQMNSLKPEDTAVYYCNADWSWYNYYDFDYWGQGTQVTVSS | low polyreactivity
26 | QVQLVESGGGLVQAGGSLRLSCAASGSIFPSYAMGWYRQAPGKERELVAAISVSGGSTYYADSVKGRFTISRDNAKNTVYLQMNSLKPEDTAVYYCAAQHGYPRYYYWGQGTQVTVSS | high polyreactivity
27 | QVQLVESGGGLVQAGGSLRLSCAASGRTFYQYAMGWYRQAPGKERELVAAISWSDGSTSYADSVKGRFTISRDNAKNTVYLQMNSLKQEDTAVYYCAKDWTGTKAIEYDYWGQGTQVTVSS | low polyreactivity
28 | QVQLVESGGGLVQAGGSLRLSCAASGFIFYKYAMGWYRQAPGKERELVAAITARGGSTYYADSVKGRFTISRDNAKNTVYLQMNSLKPEDTAVYYCAADTYFSGAGGQAYQYDYWGQGTQVTVSS | high polyreactivity
29 | QVQLVESGGGLVQAGGSLRLSCAASGSTFNDNAMGWYRQAPGKERELVAAIRWSGGSTYYADSVKGRFTISRDNAKNTVYLQMNSLKPEDTAVYYCAASRRYYLTYRYYYWGQGTQVTVSS | high polyreactivity
30 | QVQLVESGGGLLQAGGSLRLSCAASVRFLCYGWYRQAPGKERELVAAITWSGGSTYYADSVKGRFTISRDNAKNTVYLLMNSLKPEDTAVYYCARYPDSYWYGRKNYYWGQGTQVTVSS | high polyreactivity
31 | QVQLVESGGGLVQAGGSLRLSCAASGSTFTDYAMGWYRQAPGKERELVAAITNSGSSTNYEDSVKGRFTISRDNAKNTVYLQMNSLKPEDTAVYYCNASSYPWEYYYLYYGYDYWVQGTQVTVSS | low polyreactivity
32 | QVQLVESGGGLVQAGGSLRLSCAASGRIFEHYAMGWYRQAPGKERELVATISSGGSTYYADSVKGRFTISRDNAKNTVYLQMNSLKPEDTAVYYCAAERFWPYKSYYWGQGTQVTVSS | low polyreactivity
33 | QVQLVESGGGLVQAGGSLRLSCAASGRTFRHNALGWYRQAPGKERELVAAISKSGGRTYYADSVKGRFTISRDNAKNTVYLQMNSLKPEDTAVYYCAAPLYVSTSGEVGYWGQGTQVTVSS | high polyreactivity
34 | QVQLVESGGGLVQAGGSLRLSCAASGITFPSYVMGWYRQAPGKERELVAAISWRGGSTYYADSVKGRFTISRDNAKNTVYLQMNSLKPEDTAVYYCAAGSARDDDYWGQGTQVTVSS | high polyreactivity
35 | QVQLVESGGGLVQAGGSLRLSCAASGRIFLRNAMGWYRQAPGKERELVAGINSGGSTYYADSVKGRFTISRDNAKNTVYLQMNSLKPEDTAVYYCAADDGNFLSEDRDSYYGYDYWGQGTQVTVSS | low polyreactivity
36 | QVQLVESGGGLVQAGGSLRLSCAASGFTFHRNAMGWYRQAPGKERELVAAISTRGGSTAYADSVKGRFTISRDTAKNNVYLQMNSLKPEDTAVYYCNTRYVGQRSTWVDQVRRYDYWGQGTQVTVSS | high polyreactivity
37 | QVQLVESGGGLVQAGGSLRLSCAASGSTFYYNAMGWYRQAPGKERELVAAISRSGGRTYYADSVKGRFTISRDNAKNTVYLQMNSLKPEDTAVYYCAADAPGHEYYYWGQGTQVTVSS | high polyreactivity
38 | QVQLVETGGGLVQAGGSLRLSCAASVRTFHGYAMGWYRQAPGKERELVAAITCTGGRTYYADSVKGRFTISRDNAKNTVYLQMNSLKPEDTAVYYCGARPWIKSGYCGQGTQVTVSS | high polyreactivity
39 | QVQLVESGGGLVQAGGGLRLSCAASGSTFVKNAMGWYRQAPGKERELVAAISYRGGRTYYADSVKGRFTISRDNAKNTVYLQMNSLKPEDTAVYYCAADASHLTGSEYWGQGTQVTVSS | high polyreactivity
40 | QVQLVESGGGLVQAGGSLRLSCAASGSTFTYYAMGWYRQAPGKERELVAAITSRGGITYYADSVKGRFTISRDNAKNTVYLQMHSLKPEDTAVYYCNAYSQRYGYYYWGQGTQVTVSS | high polyreactivity
41 | QVQLVESRGGLVQAGGSLRLSCAASGSICYRYAMGWYRQAPGKERELVAAISYSGGSTYYADSVKGRFTISRDNAKNTVYLQMKSLKPEDTAVYYCAKDYPPPISDYSRYYGYGYWGQGTQVTVSS | low polyreactivity
42 | QVQLVESGGGLVQAGGSLRLSCAASGFTFTNYAMGWYRQAPGKEREFVARITWSGGSTYYADSVKGRFTISRDNAKNTVYLQMNSLKPEDTAVYYCAARGWLVRSFIYDYWGQGTQVTVSS | high polyreactivity
43 | QVQLVESGGGLVQAGGSLRLSCAASGRIFPVYTMGWYRQAPGKERELVAAITSSGGSTYYADSVKGRFTISRDNAKNTVYLQMNSLKPEDTAVYYCAKRAGWAYYYWGQGTQVTVSS | high polyreactivity
